Article PMC9278869

Molecular target: Flag-ACKR3-RlucII (human) (UniProt P25106)
Conditions: scale: log EC50

Chain of Flag-ACKR3-RlucII (human) (P25106 whole entry): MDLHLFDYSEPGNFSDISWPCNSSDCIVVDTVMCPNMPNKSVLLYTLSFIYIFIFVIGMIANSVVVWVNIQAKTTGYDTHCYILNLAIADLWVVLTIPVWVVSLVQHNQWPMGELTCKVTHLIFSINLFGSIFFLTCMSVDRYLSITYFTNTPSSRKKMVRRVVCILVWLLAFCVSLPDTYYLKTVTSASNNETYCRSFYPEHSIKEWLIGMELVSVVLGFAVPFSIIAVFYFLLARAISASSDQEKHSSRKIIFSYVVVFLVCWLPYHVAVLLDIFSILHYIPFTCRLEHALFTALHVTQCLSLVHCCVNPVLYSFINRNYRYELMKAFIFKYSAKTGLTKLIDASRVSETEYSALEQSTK

log EC50 of GFP10–β-arrestin 2 recruitment to ACKR3-RlucII (BRET) as a function of CXCL12WT, with 2 μM CID25: -8.89
log EC50 of GFP10–β-arrestin 2 recruitment to ACKR3-RlucII (BRET) as a function of CXCL12WT, without CID25: -8.87
Substance: wild-type CXCL12 (CXCL12WT) (from UniProt P48061 22-93) (ligand)
